T1: full length serine hydroxymethyltransferase (SEQ ID NO: 74), c-Myc tagged at the C-terminus (Escherichia coli, UniProt A7ZPZ4 1-417)
T1 construct: Expressed in Escherichia coli (DH5α); tested denatured in Western blotting of cell lysate; also called SHMT; full length: wild-type
T1 sequence: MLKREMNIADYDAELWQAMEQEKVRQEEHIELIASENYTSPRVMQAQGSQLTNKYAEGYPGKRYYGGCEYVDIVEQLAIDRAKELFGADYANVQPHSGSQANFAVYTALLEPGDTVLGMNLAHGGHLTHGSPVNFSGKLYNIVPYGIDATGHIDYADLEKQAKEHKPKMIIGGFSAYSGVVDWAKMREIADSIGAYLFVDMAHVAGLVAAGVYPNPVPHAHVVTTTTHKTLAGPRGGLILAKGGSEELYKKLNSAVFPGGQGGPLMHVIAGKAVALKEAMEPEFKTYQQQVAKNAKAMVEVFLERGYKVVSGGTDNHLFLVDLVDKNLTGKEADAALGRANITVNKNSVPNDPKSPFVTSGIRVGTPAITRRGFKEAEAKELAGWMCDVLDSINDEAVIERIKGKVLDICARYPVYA

T2: serine hydroxymethyltransferase Δ2-28 mutant (Escherichia coli, UniProt A7ZPZ4 29-417)
T2 construct: Expressed in Escherichia coli cells and 293T cells; tested in Western blotting of cell lysate; not shown: Myc-tag (40aa) at the C-terminus
T2 sequence: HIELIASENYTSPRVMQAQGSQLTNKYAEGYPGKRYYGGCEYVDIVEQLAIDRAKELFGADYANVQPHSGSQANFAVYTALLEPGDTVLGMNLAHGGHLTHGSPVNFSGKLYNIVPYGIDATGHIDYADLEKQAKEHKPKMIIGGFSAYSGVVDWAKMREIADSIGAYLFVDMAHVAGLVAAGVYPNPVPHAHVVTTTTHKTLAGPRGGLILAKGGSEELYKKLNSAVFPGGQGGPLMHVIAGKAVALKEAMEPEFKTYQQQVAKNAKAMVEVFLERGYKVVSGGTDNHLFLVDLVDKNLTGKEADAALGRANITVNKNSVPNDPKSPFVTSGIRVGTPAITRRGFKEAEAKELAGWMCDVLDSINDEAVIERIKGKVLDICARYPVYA

B1: W11 monoclonal IgA antibody (antibody, V domains shown)
VH: QVQLKQSGPGLVQPSQSLSITCTVSGFSLTNYGVHWIRQSPGKGLEWLGVIWSGGRIDYNAAFISRLNINKDNSKSQVFFKMNSLQTDDTAIYYCARTYDGYYFFQYWGQGTPLTVSS
VL: DVVMTQTPLSLPVSLGDEASISCRSSRSLIHSNGHTFLDWYLQKPGQSPKLLIYKVSNRFSGVPDRFSGSGSGTDFTLKISRVEAEDLGVYFCAQSTHAPLLTFGAGTKLELKR
notes: Mouse IgA from hybridoma
B2: W27 monoclonal IgA antibody (antibody, V domains shown)
VH: EVQLQQSGSELVKSGASVKLSCTVSGFNFTDYYIHWVRQRTEQGLEWIGRIDPENDETTYAPKFQGKATMTADTSSNTAYLQLTSLTSEDTAVYYCARSTVLDYWGHGTTLTVSS
VL: DVLMTQTPLSLPVSLGDQASISCRASQSIVHTNGNTYLEWYLQKPGQSPKLLIYKVSNRFSGVPDRFSGSGSGTDFILKISRVEAEDLGVYYCFQGSHVPPTFGGGTKLEVKR
notes: Mouse IgA from a hybridoma of small-intestinal lamina propria B cells of wild-type C57BL/6 mice, partially purified
B3: W34 monoclonal IgA antibody (antibody, V domains shown)
VH: DVQLQESGPGMVKPSQSLSLTCTVTGYSITSGYDWHWIRHFPGNKLEWMGYISYSGSTDYNPALRSRISITRDTSTNHFFLKVNSVTTEDTATYYCARDGYGSNYVMAYWGQGTSVTVSS
VL: QIVLTQSPAIMSASPGEKVTITCSASSSVHYIHWFQLKPGTSPKLWIYSTSNLASGVPARFSGSGSGTSYSLTISRMEAEDAATYYCQQRSSYPLTFGAGTKLELKR
notes: Mouse IgA from hybridoma

Assays:
[1] = target: T1, full length serine …; test: Western blot of c-Myc-tagged full-length SHMT expressed in E. coli (DH5α)
[2] = target: T2, serine hydroxymethyltransferase Δ2-28 …; test: Western blot of cell lysates (E. coli and 293T expression)

Row | Binder | binding result [1] | binding result [2]
1 | B1 | binds | –
2 | B2 | – | no binding
3 | B3 | binds | –

Reference: patent US20180009906A1 (CURED, published 2018)
